Laboratory results published in patent US20110135657A1 (published 2011).
Where a chain is given by its changes, count along the chain named.

Tests used:
[1] = molecular target: T1, human FGF21 receptor (FGF21R): full length human FGFR1c and full length human β-Klotho co-expressed at the … (human, UniProt P11362 22-822; Q86Z14 53-1044); test: cell-based or functional assay
[2] = molecular target: T2, denatured human FGFR1c (lysate of CHO cells stably expressing FGF21 receptor, non-reducing SDS-PAGE, blotted) (human, UniProt P11362 22-822); test: Western blot of CHO/FGF21 receptor lysate, non-reducing SDS-PAGE (denatured protein)
T2 construct: DENATURED protein on a Western blot, not the native fold; also called denatured FGFR1c; denatured receptor proteins
T2 sequence (P11362 22-822 limits assumed): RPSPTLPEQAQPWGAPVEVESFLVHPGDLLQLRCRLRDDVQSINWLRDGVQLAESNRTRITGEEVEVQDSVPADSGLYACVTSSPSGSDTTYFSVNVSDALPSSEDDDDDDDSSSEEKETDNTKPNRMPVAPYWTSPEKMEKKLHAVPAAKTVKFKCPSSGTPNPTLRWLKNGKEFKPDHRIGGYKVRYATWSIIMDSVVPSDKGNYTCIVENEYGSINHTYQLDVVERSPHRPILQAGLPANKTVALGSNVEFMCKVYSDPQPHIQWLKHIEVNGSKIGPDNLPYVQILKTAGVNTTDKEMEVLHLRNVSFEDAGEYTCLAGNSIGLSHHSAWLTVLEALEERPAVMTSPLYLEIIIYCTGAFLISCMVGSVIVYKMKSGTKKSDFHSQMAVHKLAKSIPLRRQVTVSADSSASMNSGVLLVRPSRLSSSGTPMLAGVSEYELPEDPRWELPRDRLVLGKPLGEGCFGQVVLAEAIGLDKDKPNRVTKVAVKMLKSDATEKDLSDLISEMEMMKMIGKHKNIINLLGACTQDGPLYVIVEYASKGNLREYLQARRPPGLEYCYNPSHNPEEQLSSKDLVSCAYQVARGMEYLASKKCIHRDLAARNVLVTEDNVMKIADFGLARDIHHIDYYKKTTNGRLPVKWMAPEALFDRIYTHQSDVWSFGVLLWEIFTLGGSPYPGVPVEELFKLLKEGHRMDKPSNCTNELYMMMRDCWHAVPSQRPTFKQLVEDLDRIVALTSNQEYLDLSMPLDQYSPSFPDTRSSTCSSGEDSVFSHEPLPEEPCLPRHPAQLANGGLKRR
Method: 20 μl of cell lysate was loaded per lane on adjacent lanes separated with a molecular weight marker lane on 4-20% SDS-PAGE gels. Following electrophoresis, the gels were blotted onto 0.2μ nitrocellulose filters. The blots were treated with Tris-buffered saline/Triton-X (TBST) plus 5% non-fat milk (blocking buffer) for 30 minutes. The blots were then cut along the molecular weight marker lanes. […] Blots were incubated with the antibodies for one hour at room temperature, followed by three washes with TBST+1% milk. The blots were then probed with anti-human or anti-goat IgG-HRP secondary antibodies for 20 min. Blots were given three 15 min. washes with TBST followed by treatment with Pierce Supersignal West Dura developing reagent (1 min.) and exposure to Kodak Biomax X-ray film.

[3] = molecular target: T3, soluble human β-Klotho (Biacore, Example 8) (human, UniProt Q86Z14 53-996, limits assumed); test: Biacore competition binning; test antibody injected over soluble receptor captured on immobilized 24H11, 17D8 or 1A2.1
T3 construct: also called soluble β-Klotho
From the text: (§1) Soluble human FGFR1c/β-Klotho ECD-Fc complex or β-Klotho was then captured on the immobilized antibody surfaces.

[4] = molecular target: T1, human FGF21 receptor (FGF21R): full …; test: cell-based or functional assay; remark: listed apart in the source
[5] = molecular target: T4, His-tagged human recombinant β-Klotho (human, UniProt Q86Z14 53-997, limits assumed); test: Biacore, 100 nM mAb over His-tagged human β-Klotho captured on anti-His antibody
T4 construct: also called β-Klotho captured on anti-His; human β-Klotho; not shown: His tag
Method: Briefly, mouse anti-His antibody (Qiagen, Valencia, Calif.) was immobilized on a CM5 chip using amine coupling reagents (General Electronics, Piscataway, N.J.). His-tagged human recombinant β-Klotho was captured on the second flow cell to ˜100RU. The first flow cell was used as a background control. 100 nM mAbs were diluted in PBS plus 0.1 mg/ml BSA, 0.005% P20 and injected over the β-Klotho captured on anti-His antibody surface. For kinetic measurement, 0.78-100 nM mAbs diluted in PBS plus 0.1 mg/ml BSA, 0.005% P20 were injected over the β-Klotho surface.

[6] = molecular target: T5, soluble human FGFR1c/β-Klotho ECD-Fc complex (human); test: Biacore, antibody immobilized on the sensor chip
T5 construct: Both entries start at residue 1 of the precursors; also called soluble FGF21R; soluble FGF21R-Fc
T5 sequence (chain, as listed by the source limits assumed, chain 1 of 2): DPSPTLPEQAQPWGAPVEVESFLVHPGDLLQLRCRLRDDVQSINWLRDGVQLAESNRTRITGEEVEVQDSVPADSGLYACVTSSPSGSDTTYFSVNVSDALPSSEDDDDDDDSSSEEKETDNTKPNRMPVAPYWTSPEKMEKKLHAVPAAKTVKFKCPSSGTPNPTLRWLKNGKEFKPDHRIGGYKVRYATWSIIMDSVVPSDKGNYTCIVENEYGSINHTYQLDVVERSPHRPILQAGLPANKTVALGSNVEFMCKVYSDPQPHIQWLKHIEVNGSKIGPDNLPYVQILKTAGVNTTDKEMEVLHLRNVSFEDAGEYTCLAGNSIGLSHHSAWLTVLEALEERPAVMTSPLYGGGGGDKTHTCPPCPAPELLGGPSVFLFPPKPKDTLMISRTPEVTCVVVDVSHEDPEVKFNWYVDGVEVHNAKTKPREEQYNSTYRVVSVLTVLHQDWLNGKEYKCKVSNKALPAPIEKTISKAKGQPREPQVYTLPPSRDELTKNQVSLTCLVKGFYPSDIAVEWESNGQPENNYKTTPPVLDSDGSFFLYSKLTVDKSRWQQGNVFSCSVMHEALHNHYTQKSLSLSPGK
T5 sequence (chain, as listed by the source limits assumed, chain 2 of 2): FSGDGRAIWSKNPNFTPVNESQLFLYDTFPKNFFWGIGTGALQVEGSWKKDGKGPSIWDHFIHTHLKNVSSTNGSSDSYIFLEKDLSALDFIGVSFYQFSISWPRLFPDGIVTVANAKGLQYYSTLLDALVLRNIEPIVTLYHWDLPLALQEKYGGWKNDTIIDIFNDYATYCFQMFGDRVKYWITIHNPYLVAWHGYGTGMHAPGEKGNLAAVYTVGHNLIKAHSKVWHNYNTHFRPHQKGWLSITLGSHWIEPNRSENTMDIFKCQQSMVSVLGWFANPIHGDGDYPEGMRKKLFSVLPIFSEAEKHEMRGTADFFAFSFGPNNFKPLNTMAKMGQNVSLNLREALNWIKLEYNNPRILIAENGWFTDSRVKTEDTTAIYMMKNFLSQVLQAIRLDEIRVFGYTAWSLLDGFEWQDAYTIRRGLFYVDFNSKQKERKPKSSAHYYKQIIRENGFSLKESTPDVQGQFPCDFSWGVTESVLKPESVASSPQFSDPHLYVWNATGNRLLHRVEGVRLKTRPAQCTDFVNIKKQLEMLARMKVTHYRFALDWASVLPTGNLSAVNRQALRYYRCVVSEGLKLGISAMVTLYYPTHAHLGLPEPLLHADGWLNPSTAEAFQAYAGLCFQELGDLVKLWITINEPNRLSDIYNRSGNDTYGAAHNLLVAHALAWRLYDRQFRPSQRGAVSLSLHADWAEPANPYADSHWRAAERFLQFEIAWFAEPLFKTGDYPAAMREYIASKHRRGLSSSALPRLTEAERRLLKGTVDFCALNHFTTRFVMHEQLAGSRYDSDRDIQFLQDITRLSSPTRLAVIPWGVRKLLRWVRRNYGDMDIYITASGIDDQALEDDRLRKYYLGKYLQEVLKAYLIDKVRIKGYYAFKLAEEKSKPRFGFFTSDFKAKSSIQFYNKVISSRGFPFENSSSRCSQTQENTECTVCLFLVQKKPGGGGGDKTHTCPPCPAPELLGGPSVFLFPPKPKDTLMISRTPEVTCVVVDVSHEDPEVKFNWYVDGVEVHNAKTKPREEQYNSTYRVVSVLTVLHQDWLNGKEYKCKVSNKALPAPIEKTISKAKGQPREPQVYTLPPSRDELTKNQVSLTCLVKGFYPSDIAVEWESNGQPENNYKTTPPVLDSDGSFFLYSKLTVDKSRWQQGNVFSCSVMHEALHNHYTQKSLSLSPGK
From the text: as §1

B1: 20D4 (antibody, human IgG2, kappa, V domains shown)
VH: QVQLVQSGAEVKKPGASVKVSCKVSGYTLTDLSMHWVRQAPGKGLEWMGGFDPEDGETIYAQKFQGRITMTEDTSTDTAYMELSSLRSEDTAVYYCASIVVVPAAIQSYYYYYGMGVWGQGTTVTVSS
VL: DIQLTQSPSSLSASIGDRVTITCRASQDIRYDLGWYQQKPGKAPKRLIYAASSLQSGVPSRFSGSGSGTEFTLTVSSLQPEDFATYYCLQHNSYPLTFGGGTKVEIER
notes: fully human monoclonal antibody; full chains H12/L12; also called 20D4.1
With B1 the “Activity (%) = % of FGF21 activity, luciferase reporter, AM-1/D FGFR1c+β-Klotho Luc clone; antibody combined with isotype IgG2k control” value (“Activity (%) = % of FGF21 activity” for short) [1] was 12.5 % of FGF21 activity, the binding result [2] was “no binding” and the binding result [3] was “binds”.

B2: 18B11.1 (antibody, human IgG2, kappa, V domains shown)
VH: EVQLVESGGGLVKPGGSLRLSCAASGFTFSDAWMSWVRQAPGKGLEWVGRIKSKTDGGTTDYAAPVKGRFTISRDDSKNTLYLQMNSLKTEDTAVYFCTSTYSSGWYVWDYYGMDVWGQGTTVTVSS
VL: DIVMTQSPLSLPVTPGEPASISCRSSQSLLYYNGFTYLDWFLQKPGQSPHLLIYLGSNRASGVPDRFSGSVSGTDFTLKISRVEAEDVGVYYCMQSLQTPFTFGPGTKVDIKR
notes: fully human monoclonal antibody; full chains H11/L10
B2: no binding [2].

B3: 16H7 (antibody, human IgG2, lambda, V domains shown)
VH: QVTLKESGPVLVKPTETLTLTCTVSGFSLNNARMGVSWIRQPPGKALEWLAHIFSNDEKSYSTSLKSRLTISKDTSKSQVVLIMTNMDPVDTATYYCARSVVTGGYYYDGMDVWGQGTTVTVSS
VL: SYVLTQPPSVSVAPGQTARITCGGNNIGSESVHWYQQKPGQAPVLVVYDDSDRPSGIPERFSGSNSGNTATLTISRVEAGDEADYYCQVWDGNSDHVVFGGGTKLTVLG
For B3, the “EC50 (nM), Erk-phosphorylation, human adipocyte assay” value (shortened to “EC50 (nM), Erk-phosphorylation”) [4] was 0.53 nM and the “Activity (%) = % of FGF21 activity” value [1] was 23.5 % of FGF21 activity.

B4: 22H5 (antibody, human IgG2, lambda, V domains shown)
VH: QVTLKESGPVLVKPTETLTLTCTVSGFSLSNARMGVSWIRQPPGKALEWLAHIFSNDEKSYSTSLKSRLTISKDTSKSQVVLTMTNMDPVDTATYYCARILLVGAYYYCGMDVWGQGTTVTVSS
VL: B3 VL with E30Q, G92N, N93T
notes: fully human monoclonal antibody; full chains H2/L2; also called 22H5 (WT)
B4 was tested, and the “EC50 (nM), Erk-phosphorylation” value [4] was 2.27 nM and the koff [5] was 0.00031 s⁻¹.

B5: 22H5 variant, light chain S94A (antibody, human IgG2, lambda, V domains shown)
VH: B4 VH
VL: B3 VL with E30Q, G92N, N93T, S94A
notes: variant chain entry already carries the change; also called #6, P60898.3
For B5, the “EC50 (nM), Erk-phosphorylation” value [4] was 1.98 nM and the koff [5] was 0.00035 s⁻¹.

B6: 22H5 variant, heavy chain C109S (antibody, human IgG2, lambda, V domains shown)
VH: B4 VH with C109S
VL: B3 VL with E30Q, G92N, N93T
notes: variant chain entry already carries the change; also called #23, P60899.2
B6 was tested, and the koff [5] was 0.0003 s⁻¹.

B7: 22H5 variant, light chain N92Q (antibody, human IgG2, lambda, V domains shown)
VH: B4 VH
VL: B3 VL with E30Q, G92Q, N93T
notes: variant chain entry already carries the change; also called #7, P60897.3
B7 was tested, and the “EC50 (nM), Erk-phosphorylation” value [4] was 3.33 nM and the koff [5] was 0.00052 s⁻¹.

B8: 12E4 (antibody, human IgG2, kappa, V domains shown)
VH: EVQLLESGGGLVQPGGSLRLSCAASRFTFSTYAMSWVRQAPGKGLEWVSGISGSGVSTYYADSVKGRFTISRDNSKNTLYLQMNSLRAEDTAVYYCAKSLIVVIVYALDYWGQGTLVTVSS
VL: EIVLTQSPGTLSLSPGERATLSCRASQNFDSNYLAWYQQKPGQAPRLLIYGASSRATGIPDNFSGSGSGTDFTLTISRLEPEDFAMYYCQQYGSSPLTFGGGTKVEIKR
notes: fully human monoclonal antibody; full chains H8/L7; also called 12E4.1
In the case of B8, the “Activity (%) = % of FGF21 activity” value [1] is reported as 25.4 % of FGF21 activity, the binding result [2] is reported as “no binding” and the binding result [3] is reported as “binds”.

B9: 17D8 (antibody, human IgG2, kappa, V domains shown)
VH: B8 VH with S17Y, R26G, G50A, I104M, A107V
VL: B8 VL with N28S, F29V, D30S, S31G, N62R, M86V, S95A
B9: binds [6]; binds [3].

B10: 26H11 (antibody, human IgG2, kappa, V domains shown)
VH: B8 VH with S17Y, R26G, G50A, Y59N, I104M, A107V
VL: B8 VL with N28S, F29V, D30S, S31G, N62R, T103S
notes: fully human monoclonal antibody; full chains H7/L6; also called 26H11.1
In the case of B10, the “Activity (%) = % of FGF21 activity” value [1] is reported as 17.9 % of FGF21 activity, the binding result [2] is reported as “no binding” and the binding result [3] is reported as “binds”.
